# Assay results as given in the supplement of paper PMC10126150.
# ± gives the standard deviation of the averaged measurements.
# System: ATP
# Assay: switch fluorescence ratio, 500 uM ATP over buffer (Cy3 cluster intensity, sum of 5 cycles each) (fold (ratio)); higher = stronger signal-on switching upon ATP binding; sequences stand for … in TCGTCGGCAGCGTCAGATGTGTATAAGAGACAGTTTTTTTTTTTTTTTTTTTTTTTTT…TC
# Conditions: aptamer strand: ATP DNA aptamer (quencher-CACCTGGGGGAGTATTGCGGAGGAAGG + anchor), 100 nM annealed; ATP concentration: 500 uM
# In short: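 Exposure to 500 uM ATP lasted 15 min at 22 °C before imaging, and a selection-buffer image was taken beforehand, for Cy3-labelled switching-strand clusters on a modified Illumina MiSeq flow-cell annealed to 100 nM quencher-labelled ATP aptamer. Five buffer/ATP cycles were run with NaOH stripping and re-annealing between them. The fluorescence ratio per cluster is summed target-cycle over summed buffer-cycle Cy3 intensity, averaged per switch-domain sequence. Clusters outside 100-1000 RFU were excluded.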
row,Sequence,switch fluorescence ratio
1,TCAGGGGACG,1 ± 0.025
2,TCAGGGGATG,0.99 ± 0.026
3,TCAGGGGCGC,0.971 ± 0.031
4,TCAGGGGGTG,1.05 ± 0.11
5,TCAGGGTCTT,1.01 ± 0.011
6,TCAGGGTGGG,1 ± 0.029
7,TCAGGTGTTT,1.56 ± 0.51
8,TCAGGTTCGT,0.987 ± 0.01
9,TCAGTAAATG,0.969 ± 0.038
10,TCAGTAGGGG,0.978 ± 0.068
11,TCAGTCGTGG,0.9928 ± 0.0033
12,TCAGTCTTTC,1.017 ± 0.0009
13,TCAGTGGGGG,0.97 ± 0.019
14,TCAGTGTGCC,0.995 ± 0.03
15,TCAGTTCTTC,0.989 ± 0.011
16,TCAGTTGGGG,0.991 ± 0.011
17,TCAGTTTGGA,1.01 ± 0.018
18,TCAGTTTTCC,1.02 ± 0.018
19,TCATAAGGCG,0.986 ± 0.046
20,TCATAAGTGC,0.977 ± 0.011
21,TCATAATGAT,1.005 ± 0.0032
22,TCATACATTT,0.9801 ± 0.0049
23,TCATACCCTG,1.024 ± 0.0061

row,Sequence,switch fluorescence ratio
1,TCATACTCAA,1.4 ± 0.018
2,TCATAGGTAC,1.04 ± 0.031
3,TCATCAATAT,1.09 ± 0.067
4,TCATCACCGT,1.01 ± 0.021
5,TCATCATGTT,1.01 ± 0.043
6,TCATCCCGGG,1.052 ± 0.0077
7,TCATCGGGG,0.947 ± 0.027
8,TCATGAGGGG,0.972 ± 0.036
9,TCATGCATCT,1.01 ± 0.072
10,TCATGGGATG,1.02 ± 0.018
11,TCATGGGGAG,1.03 ± 0.033
12,TCATGGGGGG,1.007 ± 0.01
13,TCATGGTCGT,0.982 ± 0.023
14,TCATGGTGTC,1.01 ± 0.018
15,TCATGTAGAA,1.01 ± 0.02
16,TCATGTGACT,1.02 ± 0.053
17,TCATTATGAA,0.987 ± 0.054
18,TCATTCAAGG,1.02 ± 0.013
19,TCATTCGGTG,1.05 ± 0.041
20,TCATTGGCAT,1.03 ± 0.037
21,TCATTGGGGA,1.032 ± 0.0071
22,TCATTTTCTT,0.9688 ± 0.0049
23,TCATTTTGTT,1 ± 0.028

row,Sequence,switch fluorescence ratio
1,TCCAAAATGG,1.09 ± 0.04
2,TCCAAACTGT,1.01 ± 0.051
3,TCCAAGAGTT,0.989 ± 0.0055
4,TCCAAGTGTT,0.998 ± 0.035
5,TCCAATATGG,1.05 ± 0.094
6,TCCAATGTAA,1.06 ± 0.041
7,TCCACAGTGG,1.35 ± 0.41
8,TCCACCCTT,1.03 ± 0.013
9,TCCACGGATG,1.04 ± 0.047
10,TCCAGAGATG,0.997 ± 0.028
11,TCCAGAGCGG,1.34 ± 0.47
12,TCCAGGATAT,1.03 ± 0.046
13,TCCAGGGGAA,1.03 ± 0.014
14,TCCAGGGGCG,1.73 ± 0.99
15,TCCAGGGGGA,1.1 ± 0.051
16,TCCAGGGTAC,1.23 ± 0.18
17,TCCAGGGTTA,1.031 ± 0.0058
18,TCCAGTTGCT,1.02 ± 0.033
19,TCCAGTTGTA,0.99 ± 0.019
20,TCCATCGGGG,1.01 ± 0.013
21,TCCATGGGAC,1.03 ± 0.041
22,TCCATGTGCC,1.14 ± 0.14
23,TCCCATGTTT,0.963 ± 0.032

row,Sequence,switch fluorescence ratio
1,TCCCGAGGGG,1.083 ± 0.01
2,TCCCGGGACA,1.79 ± 1.1
3,TCCCGGTTTT,1.1 ± 0.11
4,TCCCTGGACT,1.023 ± 0.0099
5,TCCGAATTGG,1.05 ± 0.022
6,TCCGAGGGAT,2.25 ± 1.3
7,TCCGATGGGT,1.145 ± 0.0095
8,TCCGCACCGT,1.76 ± 0.23
9,TCCGGAGGAC,1.86 ± 0.03
10,TCCGGAGGGT,1.05 ± 0.06
11,TCCGGATCGG,1.03 ± 0.012
12,TCCGGCACGT,1.01 ± 0.019
13,TCCGGCCAGC,1.28 ± 0.025
14,TCCGGGATGG,1.33 ± 0.39
15,TCCGGGGAGC,1.06 ± 0.015
16,TCCGGGGTTG,0.988 ± 0.046
17,TCCGGGTGTA,1.14 ± 0.22
18,TCCGGGTTGG,1.03 ± 0.013
19,TCCGGTCGAT,1.127 ± 0.0072
20,TCCGGTGACG,0.968 ± 0.033
21,TCCGGTTTCG,1.02 ± 0.039
22,TCCGTTAAGA,1.083 ± 0.0019
23,TCCGTTATTT,1.021 ± 0.0092

row,Sequence,switch fluorescence ratio
1,TCCGTTGGTG,1.01 ± 0.072
2,TCCTAAAAGT,1.01 ± 0.021
3,TCCTAAACGT,1.072 ± 0.0029
4,TCCTAGGTTT,1 ± 0.015
5,TCCTATATTG,0.986 ± 0.0023
6,TCCTGAGTTT,0.991 ± 0.047
7,TCCTGATTCT,1.03 ± 0.033
8,TCCTGATTGT,0.988 ± 0.022
9,TCCTGGGTTG,0.99 ± 0.066
10,TCCTTAACTT,1.02 ± 0.061
11,TCCTTCACGA,2.067 ± 0.017
12,TCCTTCCGGG,2.16 ± 0.19
13,TCCTTGAGTG,1.03 ± 0.031
14,TCCTTGATAT,0.995 ± 0.04
15,TCCTTGGGTT,1.016 ± 0.0099
16,TCCTTGTCTT,1.01 ± 0.016
17,TCCTTTATAC,3.09 ± 0.71
18,TCCTTTTATG,0.98329 ± 2.8e-05
19,TCCTTTTTTT,1.01 ± 0.033
20,TCGAAACTGG,1.09 ± 0.11
21,TCGAAGTGAA,1.09 ± 0.018
22,TCGAAGTTTT,0.9996 ± 0.0089
23,TCGAATATGT,0.986 ± 0.025

row,Sequence,switch fluorescence ratio
1,TCGACCGGGG,1.039 ± 0.0098
2,TCGACGGAGT,1.114 ± 0.00049
3,TCGACTGGGG,1 ± 0.034
4,TCGAGAATGG,0.952 ± 0.017
5,TCGAGAGAAA,1.01 ± 0.016
6,TCGAGAGGGT,0.996 ± 0.015
7,TCGAGAGGTG,1.1 ± 0.1
8,TCGAGATAGC,1.03 ± 0.011
9,TCGAGATATG,0.978 ± 0.09
10,TCGAGCACTG,1.13 ± 0.065
11,TCGAGCAGCT,1.1 ± 0.032
12,TCGAGCCCCA,1.04 ± 0.087
13,TCGAGGAATT,1.02 ± 0.02
14,TCGAGGGAGT,1.02 ± 0.028
15,TCGAGGTAGA,1.01 ± 0.05
16,TCGAGTCATC,0.965 ± 0.019
17,TCGAGTGGAG,1.0319 ± 0.00064
18,TCGATAGACG,1.02 ± 0.018
19,TCGATCTTTT,1.24 ± 0.4
20,TCGATGCTGG,0.982 ± 0.084
21,TCGATTCGAT,1.35 ± 0.57
22,TCGATTTCTT,1.1 ± 0.077
23,TCGCAAAATT,2.15 ± 1.3

row,Sequence,switch fluorescence ratio
1,TCGCAGCAGG,2.82 ± 0.097
2,TCGCGACTTG,0.9946 ± 0.0054
3,TCGCGAGGAG,1.04 ± 0.014
4,TCGCGAGGGG,0.997 ± 0.025
5,TCGCGCGGTG,0.978 ± 0.021
6,TCGCGGGAAA,1.01 ± 0.025
7,TCGCTGGGAT,1.2 ± 0.27
8,TCGCTGTAGG,1.1 ± 0.059
9,TCGGAATCAA,1.127 ± 0.0071
10,TCGGACTCTT,1.01 ± 0.024
11,TCGGAGAGGA,0.986 ± 0.016
12,TCGGAGATAT,1 ± 0.045
13,TCGGAGGAAA,0.999 ± 0.047
14,TCGGAGGTCA,0.956 ± 0.03
15,TCGGATGGTT,0.978 ± 0.024
16,TCGGCACCGG,1.02 ± 0.024
17,TCGGCATGGG,1.11 ± 0.11
18,TCGGCATTAA,1.37 ± 0.1
19,TCGGCATTTT,1.027 ± 0.0014
